Assays:
[1] = test system: humanized Pear1 mice; test: Peritoneal adhesion model, determination of hydroxyproline in tissues; type: in vivo; details: versus control group
From the text: (§1) The model was made in humanized mice within 3 cm from the caecums of vermiform in peritoneal cavity, following the methods in the literature (Zhiliang Zhang, et al., Characteristics of genesis and development of peritoneal adhesion by different causes: experiment with rats, Chinese Journal of Medicine, 2005). The mice were divided into 3 groups. groups, with 20 mice in each group: A, control group with normal saline; B, prophylactic intraperitoneal injection of anti-human Pear1 monoclonal antibody (including LF2 or hLF105 antibody) 0.5 mg/kg, once a week; C, prophylactic intraperitoneal injection of anti-human Pear1 monoclonal antibody 1 mg/kg, once a week. After the mice were euthanized at 2 time points of 2 weeks and 4 weeks, an inverted “U”-shaped incision was selected to enter the abdomen, avoiding the original surgical incision. […] And the degree of adhesion in the peritoneal adhesion model was evaluated.
(§2) For fibroblast-specific Pear1 knockout mice, a peritoneal adhesion model was used to form a sham operation on the mice. The model preparation and animal grouping were as described above.
The formation of tissue adhesion depends on the synthesis of collagen and hydroxyproline is the precursor of collagen synthesis. […]

[2] = test system: humanized Pear1 mice; test: Subcutaneous mucosal adhesion model, HE and Masson staining at wounded site; type: in vivo; details: 5 micrograms at the wounded site every 7 days; 14th day; versus control group
From the text: Mice were anesthetized by intraperitoneal injection of pentobarbital sodium. The hair is depilated and sterilized, and the skin is excised. A thin layer of bonding agent was applied to one side of the silicone plate to fix the wound concentrically with a clamping board. Each clamping board was sutured at regular intervals with eight stitches to secure it to the intact tissue around the wound, preventing contraction of the wound edges. Sterile dressings were cut into circular shapes and attached to the silicone board for protecting the wound, preventing the animals from scratching or chewing. The anti-human Pear1 monoclonal antibody was […].
Mice were anesthetized using isoflurane, maintaining a flow of 2% isoflurane. The sterile dressings on the silicone board were peeled off (or not peeled off). Pictures were taken at the wounded sites next to the fixed position and scale bar. If necessary, sterile dressings can be reapplied. Image J was used to process the photos. The wounded area can be calculated according to the circled area by the scale.
[…] were fixed in 4% paraformaldehyde for 48 hours, after paraffin embedding, a semi-automatic rotary slicing machine (Leica; rm2235 and cm1950) was used for slicing, dewaxing is carried out at room temperature, gradient ethanol is used for rehydration, HE and Masson staining were then performed.
Subsequently, in order to detect the role of targeting Pear1 in inhibiting adhesion formation in vivo, the inventors constructed an adhesion model in humanized Pear1 mice, and at the same time instilled anti-human Pear1 monoclonal antibodies (including LF2 or hLF105) each at a dose of 5 micrograms at the wounded site, with once administration every 7 days. On the 14th day, the subcutaneous mucosal tissue at the wounded site was removed, stained with HE and Masson, and photographed under a microscope. The thickness of the subcutaneous mucosa and skin and the area of collagen were counted by Image J software for indicating the formation of adhesions.

[3] = test system: humanized Pear1 mice; test: Peritoneal adhesion model, indicators related to adhesion (immunohistochemistry or RT-PCR); type: in vivo; details: versus control group
From the text: as §1, §2
Immunohistochemistry or RT-PCR was used to measure some indicators related to adhesion formation to reflect the severity of adhesion, such as: fibrinogen (FIB), α-smooth actin (α-SMA), MMPs/TIMPs, transforming growth factor (TGF-β1), vascular endothelial growth factor (VEGF).

[4] = test system: humanized Pear1 mice; test: Peritoneal adhesion model, BhatiaDS score; type: in vivo; set-up: key to BhatiaDS score: grade 0: no adhesion; grade I: adhesive area of the area treated in the caecums of vermiform/total area of the treated area<50%, easy for blunt separation; grade II: above-mentioned area ratio≥50%, easy for blunt dissection; Grade III: Regardless of the size of the adhesive area, as long as the adhesion is difficult to separate, blunt separation can still be performed, but the intestinal wall is obviously damaged after separation; Grade IV: Regardless of the size of the adhesive area, as long as the adhesion is firm and can no longer be bluntly separated, required sharp separation
From the text: The model was made in humanized mice within 3 cm from the caecums of vermiform in peritoneal cavity, following the methods in the literature (Zhiliang Zhang, et al., Characteristics of genesis and development of peritoneal adhesion by different causes: experiment with rats, Chinese Journal of Medicine, 2005). The mice were divided into 3 groups. groups, with 20 mice in each group: A, control group with normal saline; B, prophylactic intraperitoneal injection of anti-human Pear1 monoclonal antibody (including LF2 or hLF105 antibody) 0.5 mg/kg, once a week; C, prophylactic intraperitoneal injection of anti-human Pear1 monoclonal antibody 1 mg/kg, once a week. After the mice were euthanized at 2 time points of 2 weeks and 4 weeks, an inverted “U”-shaped incision was selected to enter the abdomen, avoiding the original surgical incision. […] And the degree of adhesion in the peritoneal adhesion model was evaluated. […]
According to the scoring standard of BhatiaDS, grade 0: no adhesion; grade I: adhesive area of the area treated in the caecums of vermiform/total area of the treated area<50%, easy for blunt separation; grade II: above-mentioned area ratio≥50%, easy for blunt dissection; Grade III: Regardless of the size of the adhesive area, as long as the adhesion is difficult to separate, blunt separation can still be performed, but the intestinal wall is obviously damaged after separation; Grade IV: Regardless of the size of the adhesive area, as long as the adhesion is firm and can no longer be bluntly separated, required sharp separation. Each mouse was scored by 3 people respectively, and the average value was taken as the score of adhesion in this sample.

[5] = test system: subcutaneous mucosal fibroblasts; test: TGFβ activated mucosal fibroblasts treated with antibody: hydroxyproline in supernatant and QPCR of Col7a1, ACTA2; type: cell-based, humanized Pear1 mice; details: 1 μg/mL antibody, 10 ng/mL TGFβ, 48 hours; versus control group
Protocol: After the treatment of starvation in cultured mucosal or subcutaneous derived fibroblasts for 12 hours, 1 μg/mL anti-human Pear1 monoclonal antibody (including LF2 antibody or hLF105 antibody) was added separately to treat the cells. After 30 minutes, 10 ng/mL TGFβ was added to treat the cells for 48 hours, then the cell supernatant was collected. The content of hydroxyproline was detected using the hydroxyproline detection kit of Nanjing Jiancheng Biology Co., Ltd. according to the instructions.
Mucosal fibroblasts in Method 5 were collected. Total mRNA was extracted by Trizol method (Invitrogen, Carlsbad, CA) according to standard protocols. Complementary DNA was synthesized using reverse transcriptase (Takara). ABI7000 Real-time PCR instrument (Life Technologies) was used to detect gene expression and the PCR primer sequences are shown in Table 5. The 18sRNA gene was used as an internal reference.
To further investigate the role of targeting Pear1 in inhibiting mucosal fibroblast activation, subcutaneous mucosal fibroblasts were isolated from humanized Pear1 mice and cultured in vitro. TGFβ activated fibroblasts were treated with anti-human Pear1 monoclonal antibodies (including LF2 or hLF105) for 48 hours, and the supernatants were collected to detect the content of hydroxyproline. The cells were collected for QPCR to detect the expression levels of extracellular matrix proteins such as collagen 7a1 (Col 7a1) and smooth muscle actin a2 (ACTA2) to characterize fibroblast activation and collagen synthesis.

B1: hLF105: humanized anti-human Pear1 antibody; VH SEQ ID NO: 8, VL SEQ ID NO: 22 (antibody, V domains shown)
VH: QVQLVQSGAEVKKPGASVKVSCKASGYTFTGYPMNWVRQAPGKRLEWMGVINPYNGGTSYNQKFKGRATLTVDTSASTAYMELSSLRSEDTAVYYCARGGVRPFAYWGQGTLVTVSS
VL: DIQMTQSPSSLSASVGDRVTITCKASEDIYNRLAWYQQKPGKAPKLLISGATSLETGVPSRFSGSGSGNDFTLTISSLQPEDFATYYCQQYWSTPTFGQGTKLEIK
Question: What does the source list for B1?
Answer: hydroxyproline content in tissues [1]: significantly lower; collagen deposition in the subcutaneous mucosa at wounded sites (Masson staining) [2]: less collagen deposition; dermal thickness at wounded sites (HE staining) [2]: smaller dermal thickness; fibroblasts at wounded sites (HE staining) [2]: fewer fibroblasts; indicators related to adhesion (FIB, α-SMA, MMPs/TIMPs, TGF-β1, VEGF) [3]: significantly lower; BhatiaDS score ([4]; 0.5 mg/kg intraperitoneal once a week, 2 weeks (n = 8)): II (grade II: above-mentioned area ratio≥50%, easy for blunt dissection); BhatiaDS score ([4]; 0.5 mg/kg intraperitoneal once a week, 4 weeks (n = 8)): I (grade I: adhesive area of the area treated in the caecums of vermiform/total area of the treated area<50%, easy for blunt separation); BhatiaDS score ([4]; 1.0 mg/kg intraperitoneal once a week, 2 weeks (n = 8)): III; BhatiaDS score ([4]; 1.0 mg/kg intraperitoneal once a week, 4 weeks (n = 8)): II (grade II: above-mentioned area ratio≥50%, easy for blunt dissection); BhatiaDS score compared with the control group ([4]; versus control group, especially in the high-dose group (1.0 mg/kg)): significantly lower; ability to synthesize extracellular matrix [5]: inhibited; activation of fibroblasts [5]: inhibited

— patent US20240327510A1, “DRUG FOR PREVENTING, ALLEVIATING OR TREATING MUCOSAL ADHESION AND USE THEREOF” (SHANGHAI SYNVIDA BIOTECHNOLOGY CO. LTD., priority 2021, published 2024)
